Reference: patent US12491259B2, “Anti-variable MUC1* antibodies and uses thereof” (Minerva Biotechnologies Corporation, priority 2022, dated 2025)

B1: MN20A10-MMAF (conjugate)
VH: QVQLVESGGGLVKPGGSLRLSCAASGFTFSTYAMSWIRQAPGKGLEWVASIGRAGSTYYSDSVKGRFTISRDNAKNSLYLQMNSLRAEDTAVYYCARGPIYNDYDEFAYWGQGTLVTVSS
VL: EIVLTQSPATLSLSPGERATLSCKSSQSVLYSSNQKNYLAWYQQKPGQAPRLLIYWASTRESGIPARFSGSGSGTDFTLTISSLEPEDFAVYYCHQYLSSLTFGGGTKVEIKR
B2: MNC2-MMAF (conjugate)
VH: EVQLVESGGGLVKPGGSLRLSCAASGFTFSGYAMSWVRQAPGKGLEWVSTISSGGTYIYYPDSVKGRFTISRDNAKNSLYLQMNSLRAEDTAVYYCARLGGDNYYEYFDVWGKGTTVTVSS
VL: DIVLTQSPASLAVSPGQRATITCRASKSVSTSGYSYMHWYQQKPGQPPKLLIYLASNLESGVPARFSGSGSGTDFTLTINPVEANDTANYYCQHSRELPFTFGGGTKVEIKRT
B3: MNC2-Deruxtecan (conjugate)
VH: B2 VH
VL: B2 VL

Tests used:
Experiment in all cases: xCELLigence real-time killing assay (impedance)
Assay type in all cases: cell-based, human
[1] = test system: T47D wild-type breast cancer cells; details: for concentration showing potent / effective / comparable killing: after 120 hours; for ADC concentration at which essentially all the tumor cells were killed: readout 120 hours post ADC addition, DAR: MNC2-MMAE 4.1, MN20A10-MMAE 5.8, MNC2-MMAF 3.7, MN20A10-MMAF 3.8; for concentration at which target cells are effectively killed: within a 40 hour timeframe
Method: FIGS. 49A-49J show traces from the real-time killing assays performed on an xCELLigence instrument. In this assay, impedance is measured in real-time. When the adherent cancer cells are killed and come off of the electrode surface, impedance (insulation) decreases. T47D wild-type breast cancer cells were plated onto multi-electrode-well plates at 5,000 cells per well and allowed to adhere and grow for 24 hours before the addition of ADCs. Either MNC2-MMAE, DAR 4.1, MN20A10-MMAE, DAR 5.8, MNC2-MMAF, DAR 3.7, MN20A10-MMAF, DAR 3.8, MNC2-Deruxtecan, DAR 7.2, or MN20A10-Deruxtecan, DAR 4.6, was then added to the cancer cells. […] Taxol and Triton are added as the positive killing control. […] Taxol and Triton are added as the positive killing control. […]
(§1) To assess real-time killing of target cancer cells including breast cancer cells (T47D), non-small cell lung cancer cells (NCI-H1975) and pancreatic cancer cells (HP AF II) assays were performed on an xCELLigence RTCA MP Instrument (Agilent). Target Cancer cells were seeded onto a multi-electrode well plate at a density of 5000 cells/well (100 μL of a 50,000 cells/mL stock) and incubated for 24 hr in a 37° C./5% CO2 incubator. mAb MNC2 ADCs or mAb MN20A10-ADCs were prepared as a 2× solution in corresponding growth media and 100 μL of each concentration was added to target cells. As a positive control (100% cell killing) cells were treated with either 1% triton or 1 μM Taxol instead of ADC. After 40-120 hours incubation in a 37° C./5% CO2 incubator cell killing was assessed. In this assay, impedance is measured in real-time. When the adherent cancer cells are killed and come off the electrode surface, impedance (insulation) decreases.
MNC2-ADCs and MN20A10-ADCs were also assayed for their ability to kill both low and high MUC1* expressing cells by monitoring killing in real-time using an xCELLigence instrument. In the xCelligence system, target cancer cells, which are adherent, are plated onto electrode array 96-well plates. Adherent cells insulate the electrode and increase the impedance. The number of adherent cancer cells is directly proportional to impedance. […] Therefore, increasing impedance reflects the growth of the cancer cells and decreasing impedance reflects the killing of the cancer cells.
Breast cancer cell line T47D-wt expresses MUC1* at low to low-medium levels. Pancreatic cancer cell line HPAF II-wt expresses even lower levels of MUC1* and lung cancer cell line NCI-H1975 express still lower levels of MUC1*.

[2] = test system: HPAF II wild-type (WT) pancreatic cancer cells; details: for ADC concentration at which essentially all the tumor cells were killed: readout 120 hours post ADC addition
Method: In this assay, impedance is measured in real-time. When the adherent cancer cells are killed and come off of the electrode surface, impedance (insulation) decreases. HPAF II wild-type (WT) pancreatic cancer cells were plated onto multi-electrode-well plates at 5,000 cells per well and allowed to adhere and grow for 24 hours before the addition of ADCs. Either MNC2-MMAE, DAR 4.1, MN20A10-MMAE, DAR 5.8, MNC2-MMAF, DAR 3.7, MN20A10-MMAF, DAR 3.8, MNC2-Deruxtecan, DAR 7.2, or MN20A10-Deruxtecan, DAR 4.6, was then added to the cancer cells. […] Taxol and Triton are added as the positive killing control. […] Taxol and Triton are added as the positive killing control. […] As indicated, essentially all the pancreatic tumor cells were killed at an MNC2-MMAE concentration of 56 nM. […] As indicated, essentially all the tumor cells were killed at an MNC2-MMAF concentration of 56 nM. […] Significant killing is measured at 120 hours at a concentration of about 56 nM. […] As indicated, essentially all the tumor cells were killed at an MN20A10-MMAE concentration of 56 nM-19 nM. […] As indicated, essentially all the tumor cells were killed at an MN20A10-MMAF concentration of 56 nM.
as §1, with “When the adherent cancer cells are killed and come off the electrode surface, impedance (insulation) decreases.” left out

[3] = test system: HPAF II-MUC1* pancreatic cancer cells; details: readout 120 hours post ADC addition
Method: FIGS. 53A-53I show traces from the real-time killing assays performed on an xCELLigence instrument. In this assay, impedance is measured in real-time. When the adherent cancer cells are killed and come off of the electrode surface, impedance (insulation) decreases. HPAF II-MUC1* pancreatic cancer cells, engineered to express more MUC1*, were plated onto multi-electrode-well plates at 5,000 cells per well and allowed to adhere and grow for 24 hours before the addition of ADCs. Either MNC2-MMAE, DAR 4.1, MN20A10-MMAE, DAR 5.8, MNC2-MMAF, DAR 3.7, MN20A10-MMAF, DAR 3.8, MNC2-Deruxtecan, DAR 7.2, or MN20A10-Deruxtecan, DAR 4.6, was then added to the cancer cells. […] Taxol and Triton are added as the positive killing control. […] Taxol and Triton are added as the positive killing control. […] As indicated, essentially all the pancreatic tumor cells were killed at an MNC2-MMAE concentration of 56 nM. […] As indicated, essentially all the tumor cells were killed at an MNC2-MMAF concentration of 56 nM. […] As indicated, essentially all the tumor cells were killed at an MN20A10-MMAE concentration of 56 nM-19 nM. […] As indicated, essentially all the tumor cells were killed at an MN20A10-MMAF concentration of 56 nM.
as §1, with “When the adherent cancer cells are killed and come off the electrode surface, impedance (insulation) decreases.” left out

| Molecule | concentration showing potent / effective / comparable killing [1] [nM] | ADC concentration at which essentially all the tumor cells were killed [1] [nM] | concentration at which target cells are effectively killed [1] [nM] | ADC concentration at which essentially all the tumor cells were killed [2] [nM] | ADC concentration at which essentially all (nearly all, near total) tumor cells were killed [3] [nM] | concentration reaching approximately the same level of killing as MNC2-MMAE or -MMAF ([1]; by 100 hours, DAR 7.2) [nM] | concentration with significant killing ([2]; at 120 hours) |
| --- | --- | --- | --- | --- | --- | --- | --- |
| B1 | 167 | 167 | 500 | 56 | 56 | – | – |
| B2 | 167 | 167 | 500 | 56 | 56 | – | – |
| B3 | 167 | – | – | – | 167 | 167 | about 56 nM |
